Laboratory results: patent US20260265359A1
Like-named read-outs stand apart in the source and are kept apart here. Values belong to the substance of their own block, whether it stands above or below them.

Columns and labels:
[1] = molecular target: T1, recombinant human PIGF (human) (UniProt P49763); assay: ELISA on plate-coated recombinant human PIGF; anti-human IgG1-Fc-HRP, OD450
T1 sequence (looked up): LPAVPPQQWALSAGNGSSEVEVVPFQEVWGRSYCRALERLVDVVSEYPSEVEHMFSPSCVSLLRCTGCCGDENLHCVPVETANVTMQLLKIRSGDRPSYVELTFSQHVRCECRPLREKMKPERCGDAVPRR

[2] = molecular target: T1, recombinant human PIGF (human); assay: as above; remark: listed apart in the source
[3] = molecular target: T2, recombinant human VEGF-B167 (human) (UniProt P49765); assay: ELISA on plate-coated recombinant human VEGF-B167; anti-human IgG1-Fc-HRP, OD450
T2 sequence (looked up): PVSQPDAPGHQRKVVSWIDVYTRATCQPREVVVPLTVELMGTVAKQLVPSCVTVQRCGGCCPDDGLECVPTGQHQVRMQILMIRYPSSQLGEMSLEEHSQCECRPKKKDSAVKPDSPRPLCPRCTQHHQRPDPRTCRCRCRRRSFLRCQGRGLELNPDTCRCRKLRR

[4] = molecular target: recombinant human VEGF-A165 (human) (UniProt P15692); assay: ELISA on plate-coated recombinant human VEGF-A165; anti-human IgG1-Fc-HRP, OD450
[5] = molecular target: human IL-6R overexpressed on engineered CHO-S cells (human) (UniProt P08887); assay: FACS competition: antibody with biotinylated human IL-6 and CHO-S cells overexpressing human IL-6R; blocked: IL-6 binding to IL-6R
[6] = molecular target: recombinant human VEGF-A165 (human) (UniProt P15692)
[7] = molecular target: recombinant human VEGF-A165 (human) (UniProt P15692); remark: listed apart in the source
[8] = molecular target: recombinant human VEGF-A165 (human) (UniProt P15692); remark: listed apart in the source
[9] = molecular target: T1, recombinant human PIGF (human); assay: SPR Biacore, 25 C; test antibody captured by anti-human IgG (Fc) on CM5 chip, target protein as analyte; 1:1 model
[10] = molecular target: recombinant human VEGF-A165 (human) (UniProt P15692); assay: as above
[11] = molecular target: T2, recombinant human VEGF-B167 (human); assay: as above
[12] = molecular target: T1, recombinant human PIGF (human); assay: as above; remark: listed apart in the source
[13] = molecular target: recombinant human VEGF-A165 (human) (UniProt P15692); assay: as above; remark: listed apart in the source
[14] = molecular target: T2, recombinant human VEGF-B167 (human); assay: as above; remark: listed apart in the source
[15] = molecular target: recombinant human Ang-2 (human) (UniProt O15123); assay: ELISA on plate-coated recombinant human Ang-2; anti-human IgG1-Fc-HRP, OD450
recombinant human Ang-2 (human), sequence (O15123 19-496 limits assumed): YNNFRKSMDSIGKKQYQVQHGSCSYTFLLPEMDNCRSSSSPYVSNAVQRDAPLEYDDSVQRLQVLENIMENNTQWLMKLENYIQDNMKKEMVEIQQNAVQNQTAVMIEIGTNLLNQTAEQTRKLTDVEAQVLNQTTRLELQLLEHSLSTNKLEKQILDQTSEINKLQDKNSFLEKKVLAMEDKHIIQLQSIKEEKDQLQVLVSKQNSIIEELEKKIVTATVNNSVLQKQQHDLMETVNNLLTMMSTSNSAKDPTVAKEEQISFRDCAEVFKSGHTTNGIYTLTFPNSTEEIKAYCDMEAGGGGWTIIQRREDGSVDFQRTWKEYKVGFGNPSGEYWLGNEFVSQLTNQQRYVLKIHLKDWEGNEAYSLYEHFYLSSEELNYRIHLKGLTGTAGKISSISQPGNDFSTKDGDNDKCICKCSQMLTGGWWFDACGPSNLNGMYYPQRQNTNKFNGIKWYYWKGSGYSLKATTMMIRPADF

recombinant human VEGF-A165 (human), sequence (P15692 other isoform, or with tags, fused parts or gaps limits assumed): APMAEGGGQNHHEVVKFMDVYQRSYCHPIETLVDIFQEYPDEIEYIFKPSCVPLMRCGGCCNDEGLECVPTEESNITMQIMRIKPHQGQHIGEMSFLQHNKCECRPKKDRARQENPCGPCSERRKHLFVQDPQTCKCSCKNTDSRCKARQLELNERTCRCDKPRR
Conbercept (Fc fusion), sequence (chain): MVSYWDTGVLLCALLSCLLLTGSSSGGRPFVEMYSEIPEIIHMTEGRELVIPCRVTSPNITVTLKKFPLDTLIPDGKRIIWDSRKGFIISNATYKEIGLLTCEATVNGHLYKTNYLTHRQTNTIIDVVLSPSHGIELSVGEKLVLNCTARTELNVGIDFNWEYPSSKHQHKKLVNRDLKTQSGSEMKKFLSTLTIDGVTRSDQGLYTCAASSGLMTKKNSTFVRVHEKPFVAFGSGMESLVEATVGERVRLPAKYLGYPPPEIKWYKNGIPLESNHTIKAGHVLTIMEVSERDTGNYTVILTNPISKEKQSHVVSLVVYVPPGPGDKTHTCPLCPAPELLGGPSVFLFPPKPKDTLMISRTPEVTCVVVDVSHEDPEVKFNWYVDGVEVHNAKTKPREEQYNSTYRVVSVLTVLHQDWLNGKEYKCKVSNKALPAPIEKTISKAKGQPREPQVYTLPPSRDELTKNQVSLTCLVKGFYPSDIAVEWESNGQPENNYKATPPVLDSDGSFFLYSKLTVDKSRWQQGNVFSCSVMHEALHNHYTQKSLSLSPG
Aflibercept (Fc fusion), sequence (chain): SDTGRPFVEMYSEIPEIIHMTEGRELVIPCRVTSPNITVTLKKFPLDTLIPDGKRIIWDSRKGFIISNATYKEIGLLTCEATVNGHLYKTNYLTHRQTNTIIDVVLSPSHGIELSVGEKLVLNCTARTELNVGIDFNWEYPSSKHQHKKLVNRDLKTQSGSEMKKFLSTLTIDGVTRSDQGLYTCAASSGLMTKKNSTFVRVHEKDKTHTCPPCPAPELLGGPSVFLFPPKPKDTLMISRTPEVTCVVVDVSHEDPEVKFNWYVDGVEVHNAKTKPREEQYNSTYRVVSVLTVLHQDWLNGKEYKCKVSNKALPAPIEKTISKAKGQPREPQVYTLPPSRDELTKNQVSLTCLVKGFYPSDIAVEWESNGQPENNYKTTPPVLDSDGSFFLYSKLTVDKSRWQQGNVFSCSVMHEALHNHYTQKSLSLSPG
human IL-6R overexpressed on engineered CHO-S cells (human), sequence (P08887 20-468, change not shown): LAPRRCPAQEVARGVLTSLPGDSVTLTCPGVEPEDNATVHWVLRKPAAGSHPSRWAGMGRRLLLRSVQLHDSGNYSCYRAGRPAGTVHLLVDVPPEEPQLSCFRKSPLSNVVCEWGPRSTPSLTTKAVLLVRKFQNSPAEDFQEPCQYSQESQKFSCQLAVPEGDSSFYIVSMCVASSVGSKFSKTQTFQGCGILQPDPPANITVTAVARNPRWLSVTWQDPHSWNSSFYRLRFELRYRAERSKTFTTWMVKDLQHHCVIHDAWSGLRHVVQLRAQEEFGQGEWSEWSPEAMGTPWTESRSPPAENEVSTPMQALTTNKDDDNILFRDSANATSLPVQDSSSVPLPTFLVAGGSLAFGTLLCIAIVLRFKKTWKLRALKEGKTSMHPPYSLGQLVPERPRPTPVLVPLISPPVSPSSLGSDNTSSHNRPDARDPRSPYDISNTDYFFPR

EC50 [1]: 0.103 nM | EC50 [2]: 0.089 nM | EC50 [3]: 0.009 nM | EC50 [4]: 0.078 nM
Substance: Conbercept (Fc fusion)

IC50 [5]: 0.524 nM
Substance: Vobarilizumab-Fc (Fc fusion)

IC50, inhibition of VEGF-A165-stimulated VEGFR-2 NF-AT luciferase reporter (HEK-293), luminescence [6]: 0.606 nM | IC50, inhibition of VEGF-A165-stimulated VEGFR-2 NF-AT luciferase reporter (HEK-293), luminescence [7]: 0.595 nM | IC50, inhibition of VEGF-A165-stimulated VEGFR-2 NF-AT luciferase reporter (HEK-293), luminescence [8]: 0.326 nM | EC50 [2]: 0.012 nM | EC50 [3]: 0.076 nM | EC50 [4]: 0.008 nM | Kd [9]: 0.148 nM | Kd [10]: 0.00257 nM | Kd [11]: 1.85 nM | Kd [12]: 0.106 nM | Kd [13]: 0.00344 nM | Kd [14]: 1.37 nM
Substance: Aflibercept (Fc fusion)

EC50 [15]: 8.32 nM
Substance: Tie-2-Fc (Fc fusion)
